Target: tubulin dimers
Assay: MST

Sequence of tubulin dimers (P68363 whole entry, chain 1 of 2): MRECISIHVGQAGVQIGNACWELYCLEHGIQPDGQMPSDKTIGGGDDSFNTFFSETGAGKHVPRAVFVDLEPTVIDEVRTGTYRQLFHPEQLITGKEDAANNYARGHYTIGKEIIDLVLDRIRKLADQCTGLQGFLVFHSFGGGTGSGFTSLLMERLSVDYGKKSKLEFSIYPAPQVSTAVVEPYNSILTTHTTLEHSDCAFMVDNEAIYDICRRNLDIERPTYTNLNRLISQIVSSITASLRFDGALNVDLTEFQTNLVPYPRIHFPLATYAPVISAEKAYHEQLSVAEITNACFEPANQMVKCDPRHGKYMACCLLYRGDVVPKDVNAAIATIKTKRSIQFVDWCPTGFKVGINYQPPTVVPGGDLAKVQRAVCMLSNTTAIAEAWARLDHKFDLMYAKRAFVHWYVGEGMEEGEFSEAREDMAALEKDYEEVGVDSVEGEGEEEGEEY
Sequence of tubulin dimers (A8K068 whole entry, chain 2 of 2, further chain): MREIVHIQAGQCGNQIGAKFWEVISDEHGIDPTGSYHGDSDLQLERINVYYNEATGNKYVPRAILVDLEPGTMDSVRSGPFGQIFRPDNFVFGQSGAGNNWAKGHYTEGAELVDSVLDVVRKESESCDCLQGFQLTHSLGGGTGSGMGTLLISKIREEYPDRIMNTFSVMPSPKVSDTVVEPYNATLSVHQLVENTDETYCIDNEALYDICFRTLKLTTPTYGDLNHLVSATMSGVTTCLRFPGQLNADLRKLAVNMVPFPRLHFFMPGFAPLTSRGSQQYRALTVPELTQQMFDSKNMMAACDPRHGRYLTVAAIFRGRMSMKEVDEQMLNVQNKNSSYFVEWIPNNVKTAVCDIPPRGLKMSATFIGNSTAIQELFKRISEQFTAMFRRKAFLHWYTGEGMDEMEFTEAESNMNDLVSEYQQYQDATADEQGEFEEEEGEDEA

B1: GMΔNT phosphorylated by Aurora B/INCENP, Q91636 187-730 (domain or fragment)
chain: GRNNQGRRKSNIVKEMEKMKNKREEQRAQNYERRMKRAQDYDTSVPNWEFGKMIKEFRATMDCHRISMADPAEEHRICVCVRKRPLNKQELSKKEIDIISVPSKNIVLVHEPKLKVDLTKYLENQAFRFDFSFDETATNEVVYRFTARPLVQSIFEGGKATCFAYGQTGSGKTHTMGGDFSGKSQNVSKGVYAFASRDVFLLLDQPRYKHLDLDVFVTFFEIYNGKVFDLLNKKTKLRVLEDAKQEVQVVGLLEKQVISADDVFKMIEIGSACRTSGQTFANTSSSRSHACLQIILRRGSKLHGKFSLVDLAGNERGVDTASADRITRMEGAEINRSLLALKECIRALGQNKSHTPFRESKLTQILRDSFIGENSRTCMIAMLSPGFNSCEYTLNTLRYADRVKELSPQNAETNDDNLQMEDSGGSHASIEGLQLQDDFLLKDEELSTHNSFQDALNRVGELEDKAVDELRELVQKEPEWTNLLQMTEQPDYDLENFVMQAEYLIQERSKVLIALGDSINSLRLALQVEEQASKQISKKKRSNK
modifications: here or on the partner: phosphorylated by Aurora B/INCENP (S196 is retained in this region)
fold increase in Kd against non-phosphorylated GMΔNT: 16 fold

— paper PMC3897551
